Source: patent US8088892B2, “Inhibitors of proteins from the Rho-GEF family” (Centre National de la Recherche Scientifique (C.N.R.S.), priority 2002, dated 2012)
Each block holds one molecule with its values, some of them ahead of it.

Assays:
control GEF (GEF720) = biological target: T1, control GEF (GEF720) (Homo sapiens, UniProt O94827); test: Yeast Exchange Assay (YEA), RhoA activation; format: cell-based; settings: yeast strain TAT7, reporter gene
T1 construct: expressed in transfected cells; host or cells: yeast strain TAT7
T1 sequence (O94827 1-1006): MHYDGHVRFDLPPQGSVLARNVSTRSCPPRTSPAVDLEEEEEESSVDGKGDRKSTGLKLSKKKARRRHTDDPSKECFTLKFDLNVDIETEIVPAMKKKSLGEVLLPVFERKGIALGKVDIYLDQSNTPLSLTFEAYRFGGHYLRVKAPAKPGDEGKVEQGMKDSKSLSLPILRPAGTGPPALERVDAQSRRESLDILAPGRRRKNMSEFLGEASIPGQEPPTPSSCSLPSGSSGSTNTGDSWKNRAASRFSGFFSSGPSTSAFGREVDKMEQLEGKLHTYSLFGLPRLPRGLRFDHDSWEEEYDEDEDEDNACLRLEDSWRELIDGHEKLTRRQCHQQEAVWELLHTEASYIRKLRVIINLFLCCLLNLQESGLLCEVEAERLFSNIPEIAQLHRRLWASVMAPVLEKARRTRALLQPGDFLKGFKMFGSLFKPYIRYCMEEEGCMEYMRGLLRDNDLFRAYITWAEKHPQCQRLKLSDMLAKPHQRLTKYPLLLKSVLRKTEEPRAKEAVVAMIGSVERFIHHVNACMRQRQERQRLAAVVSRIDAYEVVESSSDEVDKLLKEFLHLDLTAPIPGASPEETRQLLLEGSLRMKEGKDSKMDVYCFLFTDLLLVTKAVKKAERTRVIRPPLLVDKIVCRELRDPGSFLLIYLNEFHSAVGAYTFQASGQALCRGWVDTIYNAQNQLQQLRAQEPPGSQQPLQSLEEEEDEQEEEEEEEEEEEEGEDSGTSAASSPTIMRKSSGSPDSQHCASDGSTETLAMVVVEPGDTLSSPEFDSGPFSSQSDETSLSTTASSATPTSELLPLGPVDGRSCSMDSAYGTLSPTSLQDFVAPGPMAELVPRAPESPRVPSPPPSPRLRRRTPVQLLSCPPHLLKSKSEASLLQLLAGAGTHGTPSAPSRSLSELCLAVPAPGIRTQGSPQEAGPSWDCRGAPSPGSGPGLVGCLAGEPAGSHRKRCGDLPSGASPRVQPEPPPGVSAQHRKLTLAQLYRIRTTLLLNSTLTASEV
Description: (§1) The wild type GTPase is fused to the LexA DNA binding domain (Matchmaker GAL4 two-hybrid, Clontech Laboratories, Inc., USA) and the effector to the […] (Matchmaker GAL4 two-hybrid, Clontech, Inc., USA). Under these conditions, no binding occurs in the TAT7 strain (De Toledo et al., 2000). Upon addition of a third plasmid expressing the GEF, the GTPase gets activated and binds to its effector, thus leading to the transactivation of the reporter gene LacZ.
TrioGEFD2, a control GEF (GEF720) or an empty vector (−GEF: corresponds to a vector without GEF) were introduced into the YEA system and analysed for their ability to transactivate the reporter gene in absence (left panel) or in the presence (right panel) of TRIPα.
(§2) In order to better characterise the effect of TRIAPα on the Trio full length RhoGEF activity, the yeast exchange assay (YEA) was used, which is a quick and quantitative test derived from the classical two-hybrid system allowing to measure Rho-GEF activity and specificity (De Toledo et al., 2000). This functional assay is based on the fact that the GTPase binds to its effector only if it is activated by a RhoGEF. Briefly, yeasts are transformed with the GTPase fused to the LexA binding domain (LexA), and its effector to the GAL-4 Activating Domain (GAD), and with the adequate Rho-GEF partner in the yeast strain TAT7 (FIG. 7). […]

Full length Trio (RhoA) = biological target: T2, Full length Trio (RhoA) (Homo sapiens, UniProt O75962); test: Yeast Exchange Assay (YEA), full length Trio on RhoA; format: cell-based; design: key: “+ +” represents a slight activation of the reporter gene; “+ + + +” represents a strong activation of the reporter gene; “−” represents no activation of the reporter gene; settings: +TRIPα (−TRIPα: −)
T2 construct: Full length Trio was introduced into the YEA; expressed in transfected cells; host or cells: yeast strain TAT7
Description: as §1
Full length Trio was introduced into the YEA and tested for its ability to activate RhoA and RhoG respectively, in the presence or absence of TRIPα. The table below summarizes the effect of TRIPα on Trio as schematized in this Figure.
as §2

TrioDH2PH2L2051E = biological target: T3, TrioDH2PH2L2051E (Homo sapiens, UniProt O75962, L2110E); test: Binding specificity of aptamers in yeast; design: key: +++^1 and +^1 represent respectively a full and a partial (see FIG. 1) binding capacity; +++^1 and +^1 represent respectively a full and a partial (see FIG. 1) binding capacity; −−^1 represents a lack of binding; settings: RhoGEF TrioDH2PH2L2051E
T3 construct: TrioGEFD2 (DH2PH2, amino acids 1848-2298); expressed in transfected cells; host or cells: yeast

- Effect on control GEF (GEF720) in the YEA system (control GEF (GEF720)): the control GEF is unaffected
- activation of the reporter gene by full length Trio, RhoA (Full length Trio (RhoA)): −
Molecule: AREGADGAICGYNLATLVMLGPSERVFCPLCEPCSSDIYELM [TRIPα, 42-amino acid peptide corresponding to the variable region of TRIAPα]

- Binding in yeast (TrioDH2PH2L2051E): +++^1
B1: TRIAPα: aptamer of 154 amino acids: variable region of 42 amino acids inserted into the thioredoxin protein; tested as GST fusion (protein)
chain: MSDKIIHLTDDSFDTDVLKADGAILVDFWAEWCGPAREGADGAICGYNLATLVMLGPSERVFCPLCEPCSSDIYELMGPCKMIAPILDEIADEYQGKLTVAKLNIDQNPGTAPKYGIRGIPTLLLFKNGEVASATKVGALSKGQLKEFLDANLA
